Data as given in patent publication US20030124117A1.
Where two headings read alike, the source gives them in different places.

Assays:
[1] = biological target: truncated transmembrane tissue factor comprising residues 1-243, relipidated (human) (UniProt P13726); assay: cell-based or functional assay
[2] = biological target: soluble tissue factor composed of the extracellular domain residues 1-219 of hTF (human) (UniProt P13726); assay: TF binding assay (ELISA on coated human soluble TF), ratio to chimeric F(ab) standard
[3] = biological target: relipidated human tissue factor (Innovin) (human) (UniProt P13726); assay: cell-based or functional assay
[4] = biological target: tissue factor on human J82 cells (human) (UniProt P13726); assay: cell-based or functional assay
[5] = biological target: truncated transmembrane tissue factor comprising residues 1-243, relipidated (human) (UniProt P13726); assay: cell-based or functional assay; remark: listed apart in the source

truncated transmembrane tissue factor comprising residues 1-243, relipidated (human), sequence (P13726 33-275): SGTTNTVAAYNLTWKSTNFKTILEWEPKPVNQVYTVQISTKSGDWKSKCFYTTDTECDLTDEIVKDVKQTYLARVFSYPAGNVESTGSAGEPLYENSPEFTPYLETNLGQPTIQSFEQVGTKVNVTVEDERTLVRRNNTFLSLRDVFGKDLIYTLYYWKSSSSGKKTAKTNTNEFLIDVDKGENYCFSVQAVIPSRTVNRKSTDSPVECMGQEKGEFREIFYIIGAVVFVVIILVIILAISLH
soluble tissue factor composed of the extracellular domain residues 1-219 of hTF (human), sequence (P13726 33-251): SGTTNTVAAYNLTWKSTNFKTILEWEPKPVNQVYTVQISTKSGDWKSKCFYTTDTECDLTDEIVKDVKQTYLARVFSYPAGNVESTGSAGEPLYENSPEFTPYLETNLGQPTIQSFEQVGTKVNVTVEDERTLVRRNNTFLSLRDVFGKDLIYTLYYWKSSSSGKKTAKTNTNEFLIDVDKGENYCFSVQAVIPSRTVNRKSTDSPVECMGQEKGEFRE
relipidated human tissue factor (Innovin) (human), sequence (P13726 33-295 limits assumed): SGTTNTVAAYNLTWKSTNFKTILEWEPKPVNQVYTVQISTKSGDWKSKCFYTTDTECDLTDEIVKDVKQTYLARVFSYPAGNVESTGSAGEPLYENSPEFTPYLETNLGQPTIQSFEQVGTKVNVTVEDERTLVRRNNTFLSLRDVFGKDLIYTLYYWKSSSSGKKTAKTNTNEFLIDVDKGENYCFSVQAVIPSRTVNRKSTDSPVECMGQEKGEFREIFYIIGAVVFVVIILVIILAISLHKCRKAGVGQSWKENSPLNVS
tissue factor on human J82 cells (human), sequence (P13726 33-295): as the sequence (P13726 33-295 limits assumed) above

Molecule: HTF1 antibody
- concentration inhibiting the rate of FX activation in human plasma by 50% [1]: 150 µg/mL

Molecule: chimeric D3 F(ab) with CDR-H2 Asp H65 changed to Gly (Fab)
- fold reduction in binding against chimeric D3 F(ab) [2]: 14.2 fold

Molecule: chimeric D3 F(ab) with CDR-H3 Thr96-Ala97-Ala98 changed to TF8 Asn96-Ser97-Tyr98 (Fab)
- fold reduction in binding against chimeric D3 F(ab) [2]: 20.3 fold

B1: murine anti-TF antibody 5G6 (antibody, V domains shown)
VH: EVLLQQSGPELVKPGASVKIPCKASGYTFTEYNMDWVKQSHGKSLEWIGDINPNNGNTIYNQKFKGKATLTVDKSSTTAYLELRSLTSEDTAVYFCARDHDYYFDFWGQGTTLTVSS
VL: DIQMTQTPASQSASLGESVTITCLASQTIDTWLAWYQQKPGKSPQLLIYAATSLADGVPSRFSGSGSGTKFSFKISSLQAEDFVSYYCQQPYSSPYTFGGGTKLELKR
modifications: murine constant regions
- antibody concentration prolonging the clotting time (PT) by 1.5-fold [3]: 27 µg/mL
- IC50 of FPA generation, human ex-vivo blood flow system with J82 cells [4]: 50 µg/mL
- concentration inhibiting the rate of FX activation in human plasma by 50% [5]: 15.5 µg/mL
